Experimental data from publication PMC12724217.

Tests used:
[1] = molecular target: human chromosomal region maintenance 1 (CRM1) (UniProt O14980); assay: two-hybrid
[2] = molecular target: human chromosomal region maintenance 1 (CRM1) (UniProt O14980); assay: mammalian two-hybrid (CheckMate system) luciferase assay; settings: HEK-293 cells, 100 ng pG5luc reporter plasmid, 96 hours transfection, read off a plot; for percent of parent: parent: est. 100

Row | Substance | percent of parent [2] | response (fold induction) ([2]; parent: est. 5.7) | also measured
1 | DHOV M I121A (natural protein) |  |  | reduction of the firefly luciferase signal relative to WT M [1]: > 10%
2 | DHOV M I121S (natural protein) |  |  | reduction of the firefly luciferase signal relative to WT M [1]: > 10%
3 | DHOV M L122A (natural protein) |  |  | firefly luciferase signal as percent of WT M [1]: < 70 % of WT M
4 | DHOV M L122S (natural protein) |  |  | firefly luciferase signal as percent of WT M [1]: < 70 % of WT M
5 | Dhori virus (DHOV) matrix protein (M) I121A; L122A | 86 % of WT M |  | response (fold induction) ([2]; parent: est. 5.2): 4.5
6 | Dhori virus (DHOV) matrix protein (M) I121S; L122S | 90 % of WT M |  | response (fold induction) ([2]; parent: est. 5.2): 4.7
7 | Dhori virus (DHOV) matrix protein (M) I127A |  | 11 | 
8 | Dhori virus (DHOV) matrix protein (M) I127S |  | 14 | 
9 | Dhori virus (DHOV) matrix protein (M) L116A | 74 % of WT M | 4.2 | 
10 | Dhori virus (DHOV) matrix protein (M) L116S | 92 % of WT M | 5.3 | 
11 | Dhori virus (DHOV) matrix protein (M) L120A | 130 % of WT M | 7.6 | 
12 | Dhori virus (DHOV) matrix protein (M) L120S | 140 % of WT M | 7.7 | 
13 | Dhori virus (DHOV) matrix protein (M) M119A | 100 % of WT M | 5.8 | 
14 | Dhori virus (DHOV) matrix protein (M) M119S | 130 % of WT M | 7.3 | 
15 | Dhori virus (DHOV) matrix protein (M) V115A | 110 % of WT M | 6 | 
16 | Dhori virus (DHOV) matrix protein (M) V115A; L116A; M119A; L120A; I121A; L122A; I127A | 27 % of WT M |  | response (fold induction) ([2]; parent: est. 5.2): 1.4
17 | Dhori virus (DHOV) matrix protein (M) V115G; L116G; M119G; L120G; I121G; L122G; I127G | 27 % of WT M |  | response (fold induction) ([2]; parent: est. 5.2): 1.4
18 | Dhori virus (DHOV) matrix protein (M) V115R; L116R; M119R; L120R; I121R; L122R; I127R | 27 % of WT M |  | response (fold induction) ([2]; parent: est. 5.2): 1.4
19 | Dhori virus (DHOV) matrix protein (M) V115S | 110 % of WT M | 6.2 | 
